As usually defined, the Kd is the concentration at which binding is half-saturated.

Data on 2 molecules can be found in patent US20190323012, “TNF-Alpha-Binding Aptamer, And Therapeutic Use For Same” (BIOIS CO., LTD., published 2019).

Data set [1] concerns the target T1, TNF-alpha (Homo sapiens, UniProt P01375 P01375:77-233). As to the kind of experiment: EMSA; 30 mM Tris-HCl pH 7.5, 150 mM NaCl, 1.5 mM MgCl2, 2 mM DTT, tRNA, room temperature; radiolabeled RNA 50 pM. As to conditions: tags: recombinant human TNF-alpha (Sigma-Aldrich; biotinylated for SELEX); chain copies: 3. The procedure: The single-stranded nucleic acids (50 pM) binding to TNF-α, selected in <Example 2> and labeled with radioisotopes, were reacted with TNF-α protein in a manner in which the amount of TNF-α protein was increased (ranging from 0 to 320 nM). Here, the total amount of the aptamer, TNF-α protein, binding buffer (30 mM Tris-HCl (pH 7.5), 150 mM NaCl, 1.5 mM MgCl₂, and 2 mM DTT), and […] tRNA was adjusted to 40 μL, followed by binding at room temperature for 30 min. 6×BPB was added thereto, after which electrophoresis at 4° C. and 120 V using a 6% native gel (6% polyacrylamide, 1×TBE, 10 mM MgCl₂, 2% glycerol), exposure to an X-ray film and development were performed. The dissociation constant Kd was determined by calculating the amount of the RNA aptamer binding to TNF-α relative to the total RNA aptamer.
The 4% non-denatured acrylamide gel images of the TNF-α-bound RNA aptamer (C) and the TNF-α-unbound RNA aptamer (F), resulting from reacting the radioisotope-labeled 50 pM RNA aptamer ATK001 (a) and 50 pM RNA aptamer ATK007 (b) with TNF-α in a manner in which the amount of TNF-α was increased (ranging from 0 to 320 nM), are shown in a and b of FIG. 4. The percentage of RNA binding to TNF-α was determined and is graphed in c of FIG. 4.

Data set [2] addresses T1, TNF-alpha. In words: SPR; range given for ATK001 and ATK007 together; TNF-alpha immobilized on CM5, HBS. As to conditions: tags: recombinant human TNF-alpha (Sigma-Aldrich; biotinylated for SELEX); chain copies: 3. On the procedure:
SPR (Surface Plasmon Resonance) analysis was performed using a Biacore2000 (BIACORE, USA). A mixture of NHS (0.1 M N-hydroxysuccinimide) and DEC (0.4 M N-ethyl-N′-(dimethylaminopropyl)carbodiimide) in equal amounts (50 μL) was prepared and allowed to flow at 5 μL/min for 40 sec to thus activate a CM5 sensor chip. When 150-200 RU appeared, TNF-α protein to be immobilized was mixed with sodium acetate (pH 4.0) and allowed to flow at […]. In order to evaluate whether or not the protein was immobilized, 50 mM NaOH was allowed to flow for 5 sec. At 80° C., RNA aptamers ATK001 and ATK007 were denatured for 5 min and then restored at room temperature for 15 min, thus preparing an analyte (RNA).
(§1) In order to determine kinetics, the flow rate was changed to 30 μL/min.
(In SPR one partner is held on a chip, and binding of the other changes the refractive index at the surface.)

Data set [3] deals with ErbB2 (UniProt P04626 P04626:23-652). As to the kind of experiment: SPR; specificity control; printed as about 104 nM, read as 10^4 nM (lost superscript). As to conditions: tags: ThermoFisher. On the procedure: as §1
(§2) In order to evaluate the binding specificity of the RNA aptamer to TNF-α through SPR analysis in the same manner as in <Example 4> above, the binding capability to ErbB2 (ThermoFisher, USA) (Nucleic Acid Ther. 2011 June; 21(3):173-178), ErbB3 (ThermoFisher, USA) (Proc. Natl. Acad. Sci. USA. (2012), 109(33):13237-42) and IGF-BP1 (ThermoFisher, USA) (Insulin-like growth factor-binding protein 1) (Crit. Rev. Oncol. Hematol. (2008), 66(2):91-98), in addition to TNF-α, was quantified in Kd. The results are shown in [FIG. 5] (FIG. 5a illustrating the results of measurement of binding capability of ATK001, FIG. 5b illustrating the results of measurement of binding capability of ATK007, and FIG. 5c illustrating the results of measurement of binding capability of ATK001).

Data set [4] deals with ErbB3 (UniProt P21860 P21860:20-643). The data set is described as above. As to conditions: tags: ThermoFisher. On the procedure:
as §1, §2

T1 sequence (P01375 77-233, one chain of several): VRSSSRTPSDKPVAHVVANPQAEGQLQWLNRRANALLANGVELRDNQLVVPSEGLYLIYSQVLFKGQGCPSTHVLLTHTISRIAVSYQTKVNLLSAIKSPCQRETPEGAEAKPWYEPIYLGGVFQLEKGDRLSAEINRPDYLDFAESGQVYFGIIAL
ErbB3, sequence (P21860 20-643, one chain of several): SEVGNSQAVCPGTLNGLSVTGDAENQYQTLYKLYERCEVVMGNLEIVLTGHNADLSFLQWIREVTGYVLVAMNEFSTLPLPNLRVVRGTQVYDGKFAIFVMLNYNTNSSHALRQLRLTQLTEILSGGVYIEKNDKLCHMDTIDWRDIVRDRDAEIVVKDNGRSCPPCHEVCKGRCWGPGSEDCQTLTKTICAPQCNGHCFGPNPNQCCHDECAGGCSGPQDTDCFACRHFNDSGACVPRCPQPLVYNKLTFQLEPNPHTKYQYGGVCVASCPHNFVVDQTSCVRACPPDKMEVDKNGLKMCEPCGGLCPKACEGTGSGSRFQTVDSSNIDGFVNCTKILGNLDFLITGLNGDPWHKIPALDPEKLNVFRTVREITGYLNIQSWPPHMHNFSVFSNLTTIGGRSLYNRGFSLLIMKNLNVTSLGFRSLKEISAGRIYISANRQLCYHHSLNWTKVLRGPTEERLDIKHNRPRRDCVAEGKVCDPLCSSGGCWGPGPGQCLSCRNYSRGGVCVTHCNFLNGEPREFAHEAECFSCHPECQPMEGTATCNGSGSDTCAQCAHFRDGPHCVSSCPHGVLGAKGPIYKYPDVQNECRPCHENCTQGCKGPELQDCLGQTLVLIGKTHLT

B1: ATK007 (ssRNA)
RNA: GCGGAAGCGUGCUGGGCCCGGCUUGCAGGUCGCCGAAAUGACCGCACACAUAACCCAGAGGUCGAU
modifications: 2'-F on all C and U
As to B1, the dissociation constant (Kd) is ~0.005 µM in data set [1], 0.00529 µM in data set [2], ~10 µM in data set [3] and ~10 µM in data set [4].

B2: ATK001 (ssRNA)
RNA: GGGAGGACGAUGCGGCCACUGGCUAGGAACUCGAGUACUGGGUGGCAGACGACUCGCCCGA
modifications: 2'-F on all C and U
B2: the Kd in data set [2] is 0.00529 µM; in data set [3] it was ~10 µM; in data set [4], ~10 µM.
